# Measured values reported in the RNAGym collection of RNA variant scans (doi:10.1073/pnas.2313332121).
# B1: TPR t1 (parent)
# chain: GACCAAUCUGCCCUCAGAGCUCGAGAACAUCUUCGGAUGCAGAGGAGGCAGGCUUCGGUGGCGCGAUAGCGCCAACGUCCUCAACCUCCAAUGCAUCCCACCACAUGAUGAUGCCUGAAGAGCCUUGGUUUUUUG
# Variants of: B1
# Assay: polymerase ribozyme fitness, log enrichment relative to wild type (log ratio); higher = more active; in vitro selection for triplet polymerase activity
# Procedure, shortened: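 Mutant libraries of both subunits of a heterodimeric triplet polymerase ribozyme were PCR-built, transcribed, and selected once in triplicate, with frozen incubation at −7 °C and capture of gel-excised extended constructs on streptavidin beads before RT-PCR. Illumina sequencing of input and output libraries was filtered to genotypes with ≥10 input reads and ≥1 read per output. Fitness is the logarithm of genotype enrichment over wild-type enrichment, using inverse-variance-weighted replicate averages. The logarithm is base 2.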
row,Variant,polymerase ribozyme fitness (log ratio)
1,A26C G39U C124G,-4.33
2,A26C G47U C56U U112C,-5.64
3,A26C G60C,-6.06
4,A26C G61A,-3.85
5,A26C G61U U78C C80U A83G U116G,-6.77
6,A26C G117C G122A,-7.15
7,A26C G117U A119U,-7.54
8,A26C G120C G127A,-5.53
9,A26C U106A G122A,-2.97
10,A26G A27U G36A U112G U129G,-5.51
11,A26G A29G A66U C72G U78A A118U,-3.89
12,A26G A29G C72G U78A A118U,-3.07
13,A26G A29G C80G C86U A119G,-3.74
14,A26G A37U C49U G120U,-2.45
15,A26G A37U C53G,-3.12
16,A26G A50G C56G A74G C82G,-4.41
17,A26G A74C C88A C115U,-2.88
18,A26G A105G,-4.04
19,A26G C28G,-2.83
20,A26G C28G C104U,-2.85
21,A26G C28U A121G,-0.559
22,A26G C34U C85U C124G,-2.34
23,A26G C40U G63C C79A C101U G117A,-5.91
24,A26G C40U G63C U81C U130A,-4.66

row,Variant,polymerase ribozyme fitness (log ratio)
1,A26G C49A U55C C62U G63A A83C U109A G113A,-6.66
2,A26G C53U C101A,-3.58
3,A26G C70G,-3.51
4,A26G C72A C86G A111U G122U,-3.76
5,A26G C80U G120U,-3.13
6,A26G C89G,-3.55
7,A26G C89G C102U U112A G120A,-5.43
8,A26G C89U,-2.94
9,A26G C114U,-3.27
10,A26G G36A A108U C123G,-5.15
11,A26G G36U C82G,-4.05
12,A26G G39A C49U C64U,-3.32
13,A26G G45A U78G C124U U129G,-4.5
14,A26G G45C A95G C98G,-7.76
15,A26G G51U C101U,-5.8
16,A26G G60C C86G,-3.98
17,A26G G61A C82A U112A U131C,-0.172
18,A26G G61C C86U,-4.37
19,A26G G69U C70A G113U,-4.8
20,A26G G71A A84C C89U G93C C114U,-6.05
21,A26G G71A C88G G120C,-2.52
22,A26G G71U C88G G120C,-3.91
23,A26G G77U,-2.79
24,A26G G113U,-4.2

row,Variant,polymerase ribozyme fitness (log ratio)
1,A26G U30C,-4.29
2,A26G U78C U106A G113U C115A,-5.3
3,A26G U112A,-0.933
4,A26G U133G,-2.68
5,A26U A37C G77A C124G,-1.36
6,A26U A41C A46U C101U,-6.28
7,A26U A66G,-4.28
8,A26U A66G U112G,-5.69
9,A26U A83C,-3.24
10,A26U A95G,-2.46
11,A26U C40U C64U,-3.97
12,A26U C49U,-3.62
13,A26U C53U,-3.26
14,A26U C53U C56G A100C,-5.42
15,A26U C53U C56U,-3.75
16,A26U C53U G69C C115G G117C U133G,-6.29
17,A26U C56G,-3.48
18,A26U C56U C72U,-3.04
19,A26U C62U,-3.59
20,A26U C62U U129A,-5.15
21,A26U C72A U129A,-4.07
22,A26U C73U U81A,-3.86
23,A26U C80U,-4.31
24,A26U C82G C115U,-5.9

row,Variant,polymerase ribozyme fitness (log ratio)
1,A26U C89A,-6.44
2,A26U C98U,-4.2
3,A26U C115U,-4.53
4,A26U G35U C53U U112C C114U G117A,-7.18
5,A26U G39C G47A C82A A118U,-4.78
6,A26U G42C C62U C70A C88U G117U,-6.33
7,A26U G48U,-3.85
8,A26U G51A C64U A91U G120A C124G,-6.85
9,A26U G52U C94G C114A,-7.17
10,A26U G60U U78C,-3.09
11,A26U G69U C79G,-3.29
12,A26U G71A C82U,-4.08
13,A26U G71C U131A,-4.6
14,A26U G93U,-3.09
15,A26U G122A G127U U133G,-4.8
16,A26U U54C C72U U133A,-2.18
17,A26U U81A,-4.77
18,A26U U87G,-2.62
19,A26U U96A U116G A121G,-3.67
20,A26U U129G,-3.51
21,A26U U130A,-3.88
22,A27C C49G,-4.07
23,A27C C53G,-2.64
24,A27C C56G U78C C80U U81A,-3.58

row,Variant,polymerase ribozyme fitness (log ratio)
1,A27C C62A A119G A121U,-2.98
2,A27C C89U,-4.35
3,A27C C104U,-3.21
4,A27C G39A G61A C94A U112G,-4.85
5,A27C G44C C73G,-5.57
6,A27C G48A C86G U92A A103G A105C U109G,-7.14
7,A27C G51A C76G,-5.75
8,A27C G60A,-3.37
9,A27C G61U,-3.27
10,A27C G69U C73A,-1.89
11,A27C G71A,-4
12,A27C U32C G39A C98G,-7.35
13,A27C U112C G120C U126C U131A,-3.22
14,A27G A37G G57C U96G C115A,-5.8
15,A27G A46U C102U C115A G120A,-7.01
16,A27G A46U G57C U81A A83C C104A G117C G122A,-7.94
17,A27G A50G C72U U81A,-2
18,A27G A50G U81A,-1.56
19,A27G A50U,-2.6
20,A27G A50U G61A A83G U126G G128C,-5.38
21,A27G C34U,-4.85
22,A27G C49A,-2
23,A27G C49G C64U,-2.51
24,A27G C49G G63U C89G G117C,-7.01

row,Variant,polymerase ribozyme fitness (log ratio)
1,A27G C56A,-2.09
2,A27G C56G U81A C94A G122A C123A U131A,-5.75
3,A27G C62G A83G C86U,-5.4
4,A27G C70U C80A,-4.47
5,A27G C72U C101A C104A,-4.48
6,A27G C76U C89U G93A,-3.34
7,A27G C98A,-7.76
8,A27G C104A,-2.31
9,A27G C115A,-3.25
10,A27G G36U G42C G120A,-5.26
11,A27G G45U A46C C49U C124A G128A,-5.34
12,A27G G47A C53G,-2.77
13,A27G G48U,-2.47
14,A27G G52A C79U,-2.15
15,A27G G60C,-2.15
16,A27G G60U,-1.6
17,A27G G69A,-2.88
18,A27G G69C A90C,-4.21
19,A27G G69C C102U,-4.65
20,A27G G71A C72U A95G,-4
21,A27G G128C,-4.95
22,A27G U54C C80U A84U,-2.61
23,A27G U59C A68G C99U U112A,-5.37
24,A27G U78C,-2.35

row,Variant,polymerase ribozyme fitness (log ratio)
1,A27G U106G U112G,-1.51
2,A27G U125G,-2.34
3,A27G U129C,-3.02
4,A27U A29C G35C A68U U109G A119G G127A,-6.64
5,A27U A37C A91G C94U U106C,-5.4
6,A27U A41U C49U C72U,-5.06
7,A27U A43U G48A C88A C123A,-4.03
8,A27U A46C U116C,-6.31
9,A27U A46G,-2.59
10,A27U A50C,-3.87
11,A27U A66C A83U,-4.44
12,A27U A84G,-4.18
13,A27U A84U,-3.79
14,A27U C28G G63U G110C,-5.36
15,A27U C28G G110C,-4
16,A27U C28U,-2.59
17,A27U C53A C72U,-3.4
18,A27U C56G,-4.07
19,A27U C62A C101U A119U,-5.17
20,A27U C62U,-3.58
21,A27U C70A C115G U130G,-6.2
22,A27U C70U G122A,-3.96
23,A27U C72G,-3.21
